Assay results: the supplement of paper PMC9170038

Tested on: K4 kissing-loop RNA reporter
Assay: apparent KD of K4 kissing-loop reporter; higher = weaker reporter binding
Details: Eterna round: R107
Experimental: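 RNA-MaP round R107: designed RNA switches with theophylline, tryptophan, arginine or FMN aptamers are transcribed on-chip within common flanks. They are titrated with a labelled K4 kissing-loop RNA reporter in RNA-MaP buffer (100 mM Tris pH 7.5, 80 mM KCl, 4 mM MgCl2), without ligand or with the indicated ligand. Median apparent KD per design.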

[1] = input ligand: theophylline 20 uM
[2] = input ligand: tryptophan 2.4 mM
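Note: bound reporter read as fluorescence of individual clusters on recovered sequencing chips by microscopy, with normalized cluster intensities fitted with a binding model.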

GUGUGUGUCGGAGGAUAUGCGGUGGGUGUGGGCGGAUUAGUGAUGUUGGUUGUGGUGGUGGUGGGUGUAGAAGGUUGGUGUGUGU [RHig 3/7 C]
apparent KD of K4 kissing-loop reporter (input ligand: FMN 200 uM): 710 nM | apparent KD of K4 kissing-loop reporter (input ligand: arginine 13.2 mM): 350 nM | apparent KD of K4 kissing-loop reporter (input ligand: none): 738 nM | apparent KD of K4 kissing-loop reporter [1]: 400 nM | apparent KD of K4 kissing-loop reporter [2]: 444 nM

GUUACGCAUGGAAGGAGCGCACUCCGGUUGAUCGACACAGUGAUGUUGUGGUUCAUUCGAAUGCAGGUAGGUCGCCAUGUGUAAC [Ex Arginine B K4 15]
apparent KD of K4 kissing-loop reporter (input ligand: FMN 200 uM): 808 nM | apparent KD of K4 kissing-loop reporter (input ligand: arginine 13.2 mM): 593 nM | apparent KD of K4 kissing-loop reporter (input ligand: none): 847 nM | apparent KD of K4 kissing-loop reporter [1]: 886 nM | apparent KD of K4 kissing-loop reporter [2]: 804 nM

GUUACGCAUGGAAGGAGCGCAGGCUCAACAAAUAGCUCAGUGAUGUUGAGCAUAUUAAAACUGCAGGUAGGUCGCCAUGUGUAAC [Ex Arginine B K4 23]
apparent KD of K4 kissing-loop reporter (input ligand: FMN 200 uM): 651 nM | apparent KD of K4 kissing-loop reporter (input ligand: arginine 13.2 mM): 547 nM | apparent KD of K4 kissing-loop reporter (input ligand: none): 657 nM | apparent KD of K4 kissing-loop reporter [1]: 671 nM | apparent KD of K4 kissing-loop reporter [2]: 588 nM

GUUACGCAUGGAAGGAGCGCUCUCCGGUUGAUUGACACAGUGAUGUUGUGAUUCUACCGUAAGCAGGUAGGUCGCCAUGUGUAAC [Ex Arginine B K4 13]
apparent KD of K4 kissing-loop reporter (input ligand: FMN 200 uM): 950 nM | apparent KD of K4 kissing-loop reporter (input ligand: arginine 13.2 mM): 809 nM | apparent KD of K4 kissing-loop reporter (input ligand: none): 1210 nM | apparent KD of K4 kissing-loop reporter [1]: 1050 nM | apparent KD of K4 kissing-loop reporter [2]: 921 nM

GUUAUAUAAAUAAGAAAUAAAAUAAGGGAAGGAGCGCCGAGAAAGGCAGGUAGGUCGCCCAGUGAUGUUGGGAUUAAUUAAUUAG
apparent KD of K4 kissing-loop reporter (input ligand: FMN 200 uM): 45 nM | apparent KD of K4 kissing-loop reporter (input ligand: arginine 13.2 mM): 33.7 nM | apparent KD of K4 kissing-loop reporter (input ligand: none): 39.3 nM | apparent KD of K4 kissing-loop reporter [1]: 43.9 nM | apparent KD of K4 kissing-loop reporter [2]: 37.1 nM

GUUGCAGCCCGUGAUACCAGCAUCGGUCGCCGGGUCCAGUGAUGUUGGGCUUGCGUUCUAUGCCCUUGGCAGCGCGGCCUGACAG [Qulaanar]
apparent KD of K4 kissing-loop reporter (input ligand: FMN 200 uM): 415 nM | apparent KD of K4 kissing-loop reporter (input ligand: arginine 13.2 mM): 104 nM | apparent KD of K4 kissing-loop reporter (input ligand: none): 174 nM | apparent KD of K4 kissing-loop reporter [1]: 393 nM | apparent KD of K4 kissing-loop reporter [2]: 415 nM

GUUUCAGUGAUGUUGGAAGGCGAGCGGGAUACCAGCCAAGACUCAGGCCCUUGGCAGCCCACAUAUCCCACGUAGAUAGUAGCUC [Same State - Theophylline A (Freestyle 14)]
apparent KD of K4 kissing-loop reporter (input ligand: FMN 200 uM): 161 nM | apparent KD of K4 kissing-loop reporter (input ligand: arginine 13.2 mM): 116 nM | apparent KD of K4 kissing-loop reporter (input ligand: none): 133 nM | apparent KD of K4 kissing-loop reporter [1]: 153 nM | apparent KD of K4 kissing-loop reporter [2]: 137 nM

GUUUUAUAAGAGGAUACCAGUACAAAUAAAGUACAUUAAUAGUAGAGUGAUGUUCUAAAGUACCCUUGGCAGCUUAGAUUAAGUU [ExTheophylB.E]
apparent KD of K4 kissing-loop reporter (input ligand: FMN 200 uM): 147 nM | apparent KD of K4 kissing-loop reporter (input ligand: arginine 13.2 mM): 236 nM | apparent KD of K4 kissing-loop reporter (input ligand: none): 170 nM | apparent KD of K4 kissing-loop reporter [1]: 252 nM | apparent KD of K4 kissing-loop reporter [2]: 116 nM

UAAAUUAAGCUUUGCUGAUUAAUAAGCGAUACCAGCAAAUAAUGAUGCCCUUGGCAGCGUUAUAAUCUAGUGAUGUUAGAUUAGU [Not much to say about this one]
apparent KD of K4 kissing-loop reporter (input ligand: FMN 200 uM): 92.6 nM | apparent KD of K4 kissing-loop reporter (input ligand: arginine 13.2 mM): 106 nM | apparent KD of K4 kissing-loop reporter (input ligand: none): 101 nM | apparent KD of K4 kissing-loop reporter [1]: 103 nM | apparent KD of K4 kissing-loop reporter [2]: 85 nM

UAACCUGUAAACGAUACCAGUUGCAUGGAAACUUGGUACUAGCUAGUGAUGUUAGCAAGCAACCCUUGGCAGCGUCGCCUGACAG [theeternabot_sameState_KL_Theo_B_17]
apparent KD of K4 kissing-loop reporter (input ligand: FMN 200 uM): 308 nM | apparent KD of K4 kissing-loop reporter (input ligand: arginine 13.2 mM): 427 nM | apparent KD of K4 kissing-loop reporter (input ligand: none): 395 nM | apparent KD of K4 kissing-loop reporter [1]: 487 nM | apparent KD of K4 kissing-loop reporter [2]: 309 nM

UAACGACUCGGAAGGAGCGCGGUUUUAAAAGACUAAGGCCGAGUGAUGUUCGGAGAAGUCCCGCAGGUAGGUCGCCGGGUUGUGG [Ceororedar]
apparent KD of K4 kissing-loop reporter (input ligand: FMN 200 uM): 124 nM | apparent KD of K4 kissing-loop reporter (input ligand: arginine 13.2 mM): 138 nM | apparent KD of K4 kissing-loop reporter (input ligand: none): 130 nM | apparent KD of K4 kissing-loop reporter [1]: 199 nM | apparent KD of K4 kissing-loop reporter [2]: 148 nM

UAACGCCACUAAGAUACCAGACAUACAGAUCGGAUCUCCUAAAGAGAGUGAUGUUCUCUAGUCCCUUGGCAGCUUCUGGACUCCC [theeternabot_sameState_KL_Theo_B_9]
apparent KD of K4 kissing-loop reporter (input ligand: FMN 200 uM): 296 nM | apparent KD of K4 kissing-loop reporter (input ligand: arginine 13.2 mM): 356 nM | apparent KD of K4 kissing-loop reporter (input ligand: none): 406 nM | apparent KD of K4 kissing-loop reporter [1]: 396 nM | apparent KD of K4 kissing-loop reporter [2]: 291 nM

UAAGAGGACCACUGCAAGAGUCCUCGAAUACGAGGACCGGUACGGCCGCCACUCGAUAAUUUGCAGUGAUGUUGCAAGUAAGAAU [BrourdMod 5 - Jieux - Same State Tryptophan A]
apparent KD of K4 kissing-loop reporter (input ligand: FMN 200 uM): 115 nM | apparent KD of K4 kissing-loop reporter (input ligand: arginine 13.2 mM): 167 nM | apparent KD of K4 kissing-loop reporter (input ligand: none): 130 nM | apparent KD of K4 kissing-loop reporter [1]: 177 nM | apparent KD of K4 kissing-loop reporter [2]: 54.4 nM

UAAGAUAUAAGGGAUACCAGCCAUAAGGAAAGUGUGAUGAGUGAUGUUCUGACAAGCCAAGGCCCUUGGCAGCUUUAAUAGCAUC [Theophylline B Same State; Euphoria Solution]
apparent KD of K4 kissing-loop reporter (input ligand: FMN 200 uM): 303 nM | apparent KD of K4 kissing-loop reporter (input ligand: arginine 13.2 mM): 198 nM | apparent KD of K4 kissing-loop reporter (input ligand: none): 471 nM | apparent KD of K4 kissing-loop reporter [1]: 263 nM | apparent KD of K4 kissing-loop reporter [2]: 235 nM

UAAGCUCUGACGGCCGCCACUGCACGUGAAUCAGUGGUGGCUAACAUGAGUGAUGUUCAUGUAAGCAGGACCGGGUCAGAGCUAA [KL-XTryp-B14 #analogue]
apparent KD of K4 kissing-loop reporter (input ligand: FMN 200 uM): 112 nM | apparent KD of K4 kissing-loop reporter (input ligand: arginine 13.2 mM): 89.7 nM | apparent KD of K4 kissing-loop reporter (input ligand: none): 93.4 nM | apparent KD of K4 kissing-loop reporter [1]: 93.6 nM | apparent KD of K4 kissing-loop reporter [2]: 109 nM

UAAUAAUAAUGAUAAUAAUAAAGUGGUGGACGAGGACCGGUACGGCCGCCACUCGAAAAUGCAGUGAUGUUGUAAUACAAAUAAU [Exclusion - Tryptophan A (Freestyle 1)]
apparent KD of K4 kissing-loop reporter (input ligand: FMN 200 uM): 110 nM | apparent KD of K4 kissing-loop reporter (input ligand: arginine 13.2 mM): 203 nM | apparent KD of K4 kissing-loop reporter (input ligand: none): 137 nM | apparent KD of K4 kissing-loop reporter [1]: 200 nM | apparent KD of K4 kissing-loop reporter [2]: 86.6 nM

UAAUAUAAUCUGUCGUUUACAAUAUUUAGUCAGGAUAUCGUAUAUUCGAGAAGGGACACUAUCUAGUGAUGUUAGAUAUUUCUUU [JR_ExcFMNA_Sub014]
apparent KD of K4 kissing-loop reporter (input ligand: FMN 200 uM): 47.9 nM | apparent KD of K4 kissing-loop reporter (input ligand: arginine 13.2 mM): 78.1 nM | apparent KD of K4 kissing-loop reporter (input ligand: none): 55.9 nM | apparent KD of K4 kissing-loop reporter [1]: 67 nM | apparent KD of K4 kissing-loop reporter [2]: 51.9 nM

UAAUAUACGAGUGAUGUUCGUUAUUUAUCAGAGGAUAUGCUUAAAUGCAGAAGGCUGUUUUUCUAAUUGAUAUUAAAUUUUUUUA [JR_Nu_ExcFMNA_Sub028]
apparent KD of K4 kissing-loop reporter (input ligand: FMN 200 uM): 77.2 nM | apparent KD of K4 kissing-loop reporter (input ligand: arginine 13.2 mM): 90.1 nM | apparent KD of K4 kissing-loop reporter (input ligand: none): 74 nM | apparent KD of K4 kissing-loop reporter [1]: 89.7 nM | apparent KD of K4 kissing-loop reporter [2]: 63.3 nM

UAAUCCUAGUGAUAAUAAUCAAGUGGUGGACGAGGACCGGUACGGCCGCCACUCGAAAAUGCAGUGAUGUUGUAAUCCGGAUAAU [Exclusion - Tryptophan A (Freestyle 4)]
apparent KD of K4 kissing-loop reporter (input ligand: FMN 200 uM): 627 nM | apparent KD of K4 kissing-loop reporter (input ligand: arginine 13.2 mM): 701 nM | apparent KD of K4 kissing-loop reporter (input ligand: none): 878 nM | apparent KD of K4 kissing-loop reporter [1]: 771 nM | apparent KD of K4 kissing-loop reporter [2]: 581 nM

UAAUCCUAGUGAUCCUUAUCAAGUGGUGGGCGAGGACCGGUACGGCCGCCACUCGAAUAUGCAGUGAUGUUGUAAUCCGGAUAAU [Exclusion - Tryptophan A (Freestyle 9)]
apparent KD of K4 kissing-loop reporter (input ligand: FMN 200 uM): 568 nM | apparent KD of K4 kissing-loop reporter (input ligand: arginine 13.2 mM): 741 nM | apparent KD of K4 kissing-loop reporter (input ligand: none): 919 nM | apparent KD of K4 kissing-loop reporter [1]: 750 nM | apparent KD of K4 kissing-loop reporter [2]: 440 nM

UAAUUGCAGUGAUGUUGCAAAUGUCCUGACUAGGAUAUCAGGAAACUGAGAAGGAGUCCCUUCUAUUGCAACAAGAAGGAGGAUA [KL-SSFMN-A14]
apparent KD of K4 kissing-loop reporter (input ligand: FMN 200 uM): 312 nM | apparent KD of K4 kissing-loop reporter (input ligand: arginine 13.2 mM): 300 nM | apparent KD of K4 kissing-loop reporter (input ligand: none): 347 nM | apparent KD of K4 kissing-loop reporter [1]: 338 nM | apparent KD of K4 kissing-loop reporter [2]: 287 nM
